Assays:
[1] = target: IGF-II receptor (human, in membrane extracts of postmortem frontal lobe tissue) (human) (UniProt P11717); assay: saturation binding of [125I]-IGF-II to pooled human frontal lobe extracts, Braak 0-1; one-site fit/Scatchard
[2] = target: IGF-II receptor (human, in membrane extracts of postmortem frontal lobe tissue) (human) (UniProt P11717); assay: saturation binding of [125I]-IGF-II to pooled human frontal lobe extracts, Braak 2-3; one-site fit/Scatchard
[3] = target: IGF-II receptor (human, in membrane extracts of postmortem frontal lobe tissue) (human) (UniProt P11717); assay: saturation binding of [125I]-IGF-II to pooled human frontal lobe extracts, Braak 6; one-site fit/Scatchard
[4] = target: IGF-II receptor (human, in membrane extracts of postmortem frontal lobe tissue) (human) (UniProt P11717); assay: saturation binding of [125I]-IGF-II to pooled human frontal lobe extracts, Braak 4-5; one-site fit/Scatchard

Chain of IGF-II receptor (human, in membrane extracts of postmortem frontal lobe tissue) (human) (P11717 41-2491 limits assumed): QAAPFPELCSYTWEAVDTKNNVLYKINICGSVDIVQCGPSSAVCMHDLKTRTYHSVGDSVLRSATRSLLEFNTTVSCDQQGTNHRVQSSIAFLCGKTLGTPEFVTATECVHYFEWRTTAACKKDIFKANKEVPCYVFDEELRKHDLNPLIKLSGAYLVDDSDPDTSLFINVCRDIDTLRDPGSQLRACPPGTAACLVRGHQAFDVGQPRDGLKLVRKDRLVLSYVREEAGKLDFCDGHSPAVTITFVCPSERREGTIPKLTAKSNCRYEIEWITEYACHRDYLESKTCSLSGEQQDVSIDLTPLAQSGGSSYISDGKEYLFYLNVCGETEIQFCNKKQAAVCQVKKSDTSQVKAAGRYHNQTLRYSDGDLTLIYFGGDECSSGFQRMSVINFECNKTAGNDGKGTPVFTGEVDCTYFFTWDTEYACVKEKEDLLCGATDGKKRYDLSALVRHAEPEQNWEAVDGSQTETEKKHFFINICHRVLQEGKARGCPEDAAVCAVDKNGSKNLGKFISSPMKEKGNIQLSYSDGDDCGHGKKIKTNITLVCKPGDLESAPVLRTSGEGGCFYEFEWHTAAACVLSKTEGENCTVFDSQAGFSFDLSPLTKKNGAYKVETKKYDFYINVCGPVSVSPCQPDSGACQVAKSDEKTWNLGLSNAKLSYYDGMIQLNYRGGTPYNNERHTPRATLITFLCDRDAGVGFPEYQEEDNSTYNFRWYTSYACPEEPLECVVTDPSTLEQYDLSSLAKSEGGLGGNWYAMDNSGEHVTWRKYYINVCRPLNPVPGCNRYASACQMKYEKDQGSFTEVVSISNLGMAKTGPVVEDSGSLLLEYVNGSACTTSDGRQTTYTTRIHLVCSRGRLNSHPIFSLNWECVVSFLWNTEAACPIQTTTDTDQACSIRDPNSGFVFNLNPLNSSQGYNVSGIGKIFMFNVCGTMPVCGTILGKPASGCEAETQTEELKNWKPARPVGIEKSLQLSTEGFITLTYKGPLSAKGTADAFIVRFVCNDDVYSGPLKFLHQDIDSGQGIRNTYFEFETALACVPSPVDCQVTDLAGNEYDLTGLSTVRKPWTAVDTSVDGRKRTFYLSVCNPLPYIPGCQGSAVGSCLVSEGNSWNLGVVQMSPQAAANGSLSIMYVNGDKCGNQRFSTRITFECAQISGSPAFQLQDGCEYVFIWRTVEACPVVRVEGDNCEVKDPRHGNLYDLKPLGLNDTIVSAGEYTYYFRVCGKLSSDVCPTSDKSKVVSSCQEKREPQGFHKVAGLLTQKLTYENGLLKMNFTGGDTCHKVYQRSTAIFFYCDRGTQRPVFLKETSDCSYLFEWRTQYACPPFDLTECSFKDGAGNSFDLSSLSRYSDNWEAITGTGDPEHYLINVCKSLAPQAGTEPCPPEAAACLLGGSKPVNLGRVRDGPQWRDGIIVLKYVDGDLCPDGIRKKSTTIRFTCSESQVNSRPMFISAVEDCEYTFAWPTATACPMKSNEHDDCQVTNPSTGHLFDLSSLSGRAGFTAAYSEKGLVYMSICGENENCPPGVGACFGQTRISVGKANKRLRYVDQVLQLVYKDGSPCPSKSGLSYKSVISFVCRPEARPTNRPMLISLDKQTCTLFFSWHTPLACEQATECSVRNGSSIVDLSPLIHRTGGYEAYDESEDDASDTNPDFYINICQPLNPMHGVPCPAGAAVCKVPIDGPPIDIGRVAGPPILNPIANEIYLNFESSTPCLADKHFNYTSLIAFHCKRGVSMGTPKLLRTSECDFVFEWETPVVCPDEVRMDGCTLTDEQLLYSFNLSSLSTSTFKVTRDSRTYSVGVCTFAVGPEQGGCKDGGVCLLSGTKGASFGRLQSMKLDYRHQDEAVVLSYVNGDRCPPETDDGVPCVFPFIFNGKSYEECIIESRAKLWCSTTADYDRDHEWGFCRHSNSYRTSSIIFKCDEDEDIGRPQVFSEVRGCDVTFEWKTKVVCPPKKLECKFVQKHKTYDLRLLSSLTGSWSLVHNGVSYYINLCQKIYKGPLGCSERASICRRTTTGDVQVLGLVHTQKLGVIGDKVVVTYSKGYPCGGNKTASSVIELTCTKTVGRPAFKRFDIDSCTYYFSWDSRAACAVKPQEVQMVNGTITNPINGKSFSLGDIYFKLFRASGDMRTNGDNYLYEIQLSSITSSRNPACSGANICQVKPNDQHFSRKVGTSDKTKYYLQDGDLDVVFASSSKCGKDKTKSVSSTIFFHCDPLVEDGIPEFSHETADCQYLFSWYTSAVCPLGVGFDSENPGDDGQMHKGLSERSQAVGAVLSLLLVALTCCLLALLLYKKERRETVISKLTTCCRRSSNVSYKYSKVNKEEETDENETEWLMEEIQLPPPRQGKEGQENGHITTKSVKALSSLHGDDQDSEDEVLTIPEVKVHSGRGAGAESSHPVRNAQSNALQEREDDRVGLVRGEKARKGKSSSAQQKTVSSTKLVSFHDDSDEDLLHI

BMAX (fmol/mg protein) [1]: 16.8
BMAX (fmol/mg protein) [2]: 12.5
BMAX (fmol/mg protein) [3]: 4.71
BMAX (fmol/mg protein) [4]: 8.14
Substance: [125I]-labeled IGF-II (ligand)
